# Experimental data from publication PMC7937191 (Biochemical and biophysical research communications, 2020).
# Molecular target: CXCR4-RLuc (chemokine (C-X-C motif) receptor 4 with Renilla reniformis luciferase at the C-terminus) (UniProt P61073 1-352)
# Experiment: FRET or BRET
# Chain of CXCR4-RLuc (chemokine (C-X-C motif) receptor 4 with Renilla reniformis luciferase at the C-terminus) (P61073 whole entry): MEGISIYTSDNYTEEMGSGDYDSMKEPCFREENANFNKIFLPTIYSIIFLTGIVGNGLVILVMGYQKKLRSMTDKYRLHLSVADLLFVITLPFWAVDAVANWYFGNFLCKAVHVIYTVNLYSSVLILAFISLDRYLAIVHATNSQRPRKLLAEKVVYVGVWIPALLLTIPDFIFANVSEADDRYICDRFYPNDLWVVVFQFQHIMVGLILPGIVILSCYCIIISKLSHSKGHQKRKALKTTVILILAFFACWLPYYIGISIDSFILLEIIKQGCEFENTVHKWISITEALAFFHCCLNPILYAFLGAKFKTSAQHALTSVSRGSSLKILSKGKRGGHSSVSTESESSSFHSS
row,BRET50 (EYFP/Lum),Binder
1,0.055,"α1a-AR-EYFP (α1a-adrenergic receptor with enhanced yellow fluorescent protein at the C-terminus) (receptor, UniProt P35348 1-466, looked up) MVFLSGNASDSSNCTQPPAPVNISKAILLGVILGGLILFGVLGNILVILSVACHRHLHSVTHYYIVNLAVADLLLTSTVLPFSAIFEVLGYWAFGRVFCNIWAAVDVLCCTASIMGLCIISIDRYIGVSYPLRYPTIVTQRRGLMALLCVWALSLVISIGPLFGWRQPAPEDETICQINEEPGYVLFSALGSFYLPLAIILVMYCRVYVVAKRESRGLKSGLKTDKSDSEQVTLRIHRKNAPAGGSGMASAKTKTHFSVRLLKFSREKKAAKTLGIVVGCFVLCWLPFFLVMPIGSFFPDFKPSETVFKIVFWLGYLNSCINPIIYPCSSQEFKKAFQNVLRIQCLCRKQSSKHALGYTLHPPSQAVEGQHKDMVRIPVGSRETFYRISKTDGVCEWKFFSSMPRGSARITVSKDQSSCTTARVRSKSFLQVCCCVGPSTPSLDKNHQVPTIKVHTISLSENGEEV"
2,0.051,"α1d-AR-EYFP (α1d-adrenergic receptor with enhanced yellow fluorescent protein at the C-terminus) (receptor, UniProt P25100 1-572, looked up) MTFRDLLSVSFEGPRPDSSAGGSSAGGGGGSAGGAAPSEGPAVGGVPGGAGGGGGVVGAGSGEDNRSSAGEPGSAGAGGDVNGTAAVGGLVVSAQGVGVGVFLAAFILMAVAGNLLVILSVACNRHLQTVTNYFIVNLAVADLLLSATVLPFSATMEVLGFWAFGRAFCDVWAAVDVLCCTASILSLCTISVDRYVGVRHSLKYPAIMTERKAAAILALLWVVALVVSVGPLLGWKEPVPPDERFCGITEEAGYAVFSSVCSFYLPMAVIVVMYCRVYVVARSTTRSLEAGVKRERGKASEVVLRIHCRGAATGADGAHGMRSAKGHTFRSSLSVRLLKFSREKKAAKTLAIVVGVFVLCWFPFFFVLPLGSLFPQLKPSEGVFKVIFWLGYFNSCVNPLIYPCSSREFKRAFLRLLRCQCRRRRRRRPLWRVYGHHWRASTSGLRQDCAPSSGDAPPGAPLALTALPDPDPEPPGTPEMQAPVASRRKPPSAFREWRLLGPFRRPTTQLRAKVSSLSHKIRAGGAQRAEAACAQRSEVEAVSLGVPHEVAEGATCQAYELADYSNLRETDI"
3,0.072,"α1b-AR-EYFP (α1b-adrenergic receptor with enhanced yellow fluorescent protein at the C-terminus) (receptor, UniProt P35368 1-520, looked up) MNPDLDTGHNTSAPAHWGELKNANFTGPNQTSSNSTLPQLDITRAISVGLVLGAFILFAIVGNILVILSVACNRHLRTPTNYFIVNLAMADLLLSFTVLPFSAALEVLGYWVLGRIFCDIWAAVDVLCCTASILSLCAISIDRYIGVRYSLQYPTLVTRRKAILALLSVWVLSTVISIGPLLGWKEPAPNDDKECGVTEEPFYALFSSLGSFYIPLAVILVMYCRVYIVAKRTTKNLEAGVMKEMSNSKELTLRIHSKNFHEDTLSSTKAKGHNPRSSIAVKLFKFSREKKAAKTLGIVVGMFILCWLPFFIALPLGSLFSTLKPPDAVFKVVFWLGYFNSCLNPIIYPCSSKEFKRAFVRILGCQCRGRGRRRRRRRRRLGGCAYTYRPWTRGGSLERSQSRKDSLDDSGSCLSGSQRTLPSASPSPGYLGRGAPPPVELCAFPEWKAPGALLSLPAPEPPGRRGRHDSGPLFTFKLLTEPESPGTDGGASNGGCEAAADVANGQPGFKSNMPLAPGQF"
